The record followed here is US20140094417A1.

The target of the experiment is CD22 (UniProt P20273). As to the kind of experiment: cell-based or functional assay.
Chain of UniProt P20273 (P20273 20-847 limits assumed): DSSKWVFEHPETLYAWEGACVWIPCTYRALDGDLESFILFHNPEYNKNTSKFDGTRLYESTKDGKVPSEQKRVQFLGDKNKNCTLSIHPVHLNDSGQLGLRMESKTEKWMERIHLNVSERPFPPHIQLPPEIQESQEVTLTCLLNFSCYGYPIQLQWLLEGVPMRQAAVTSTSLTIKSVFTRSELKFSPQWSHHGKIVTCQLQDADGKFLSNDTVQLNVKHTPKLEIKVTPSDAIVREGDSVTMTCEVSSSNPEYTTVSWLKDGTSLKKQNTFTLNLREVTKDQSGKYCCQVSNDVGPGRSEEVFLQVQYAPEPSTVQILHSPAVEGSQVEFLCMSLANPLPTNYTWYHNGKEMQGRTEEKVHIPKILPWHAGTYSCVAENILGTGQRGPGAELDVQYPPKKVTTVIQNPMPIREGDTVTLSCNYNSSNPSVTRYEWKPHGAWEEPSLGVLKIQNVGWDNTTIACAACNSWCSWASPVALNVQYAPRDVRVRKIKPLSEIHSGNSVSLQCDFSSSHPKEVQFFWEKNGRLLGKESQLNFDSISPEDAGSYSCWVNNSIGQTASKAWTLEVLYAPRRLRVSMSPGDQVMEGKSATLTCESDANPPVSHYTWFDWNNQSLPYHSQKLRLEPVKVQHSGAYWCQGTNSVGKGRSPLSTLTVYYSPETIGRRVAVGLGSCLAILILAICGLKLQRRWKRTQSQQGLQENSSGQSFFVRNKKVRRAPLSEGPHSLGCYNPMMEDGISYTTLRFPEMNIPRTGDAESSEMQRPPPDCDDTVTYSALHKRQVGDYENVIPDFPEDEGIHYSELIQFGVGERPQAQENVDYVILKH

Regarding HA22-LO10, the IC50 (ng/ml), cytotoxic activity on CA46 is 0.38 ng/mL; the IC50 (ng/ml), cytotoxic activity on Daudi amounted to 0.3 ng/mL; the IC50 (ng/ml), cytotoxic activity on Raji stood at 1.5 ng/mL; the activity on CA46 relative to HA22-LR worked out at 29%. The same substance registered an activity on Daudi relative to HA22-LR of 60% and an activity on Raji relative to HA22-LR of 27%.

HA22-LR came in with an IC50 (ng/ml), cytotoxic activity on CA46 of 0.11 ng/mL; an IC50 (ng/ml), cytotoxic activity on Daudi of 0.18 ng/mL; an IC50 (ng/ml), cytotoxic activity on Raji of 0.41 ng/mL.
